# Patent publication US20030119169
# T1: in vitro translated GST-CPP32 precursor, P42574
# T1 chain: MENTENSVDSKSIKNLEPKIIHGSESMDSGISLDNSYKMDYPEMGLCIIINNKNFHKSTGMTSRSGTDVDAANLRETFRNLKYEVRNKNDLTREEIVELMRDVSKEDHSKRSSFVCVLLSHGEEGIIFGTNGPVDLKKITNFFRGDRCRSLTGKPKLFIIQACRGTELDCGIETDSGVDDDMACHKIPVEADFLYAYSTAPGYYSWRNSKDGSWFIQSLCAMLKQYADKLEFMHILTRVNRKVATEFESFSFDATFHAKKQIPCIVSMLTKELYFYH
# T2: tetrapeptide substrate DEVD-AMC
# T2 chain: DEVD
# T3: in vitro translated GST-Mch3α2 precursor
# T3 sequence (P55210 whole entry, looked up): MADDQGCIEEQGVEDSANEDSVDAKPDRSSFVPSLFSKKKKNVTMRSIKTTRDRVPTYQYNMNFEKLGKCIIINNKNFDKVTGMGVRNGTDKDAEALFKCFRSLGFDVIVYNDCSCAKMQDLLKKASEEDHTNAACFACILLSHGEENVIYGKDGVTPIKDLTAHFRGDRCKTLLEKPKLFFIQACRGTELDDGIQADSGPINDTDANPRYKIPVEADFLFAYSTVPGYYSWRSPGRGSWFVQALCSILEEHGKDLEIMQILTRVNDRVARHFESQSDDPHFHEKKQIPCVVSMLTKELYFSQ
# T4: YVADamc
# T4 chain: YVAD
# Tests used:
# [1] = target: T1, in vitro translated GST-CPP32 …
# [2] = target: T2, tetrapeptide substrate DEVD-AMC
# [3] = target: T3, in vitro translated GST-Mch3α2 precursor
# [4] = target: in vitro translated GST control [GST: P08515]
# [5] = target: T4, YVADamc
# Chain of in vitro translated GST control [GST: P08515] (P08515 whole entry): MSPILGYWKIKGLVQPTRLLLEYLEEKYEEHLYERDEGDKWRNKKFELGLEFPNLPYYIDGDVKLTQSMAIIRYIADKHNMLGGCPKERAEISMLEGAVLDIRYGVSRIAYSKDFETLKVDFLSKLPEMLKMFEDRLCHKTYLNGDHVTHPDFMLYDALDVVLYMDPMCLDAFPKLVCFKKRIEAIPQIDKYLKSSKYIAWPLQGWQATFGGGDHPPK
Protein,"cleavage of 35S-labelled in vitro translated precursor, SDS-PAGE and autoradiography [1]","kcat/Km (DEVDamc, mM^-1s^-1) [2] [mM⁻¹ s⁻¹]","cleavage of 35S-labelled in vitro translated precursor, SDS-PAGE and autoradiography [3]","cleavage of resin-immobilized 35S-labelled precursor, soluble products on gradient SDS gel [3]","cleavage of 35S-labelled in vitro translated protein, SDS-PAGE and autoradiography [4]","Km (YVADamc, µM) [5] [µM]","kcat/Km (YVADamc, mM^-1 s^-1) [5] [M⁻¹ s⁻¹]","Km (DEVDamc, µM) [2] [µM]"
"CPP32, bacterially expressed recombinant active enzyme (protein) SGISLDNSYKMDYPEMGLCIIINNKNFHKSTGMTSRSGTDVDAANLRETFRNLKYEVRNKNDLTREEIVELMRDVSKEDHSKRSSFVCVLLSHGEEGIIFGTNGPVDLKKITNFFRGDRCRSLTGKPKLFIIQACRGTELDCGIETDSGVDDDMACHKIPVEADFLYAYSTAPGYYSWRNSKDGSWFIQSLCAMLKQYADKLEFMHILTRVNRKVATEFESFSFDATFHAKKQIPCIVSMLTKELYFYH",CPP32 showed a very weak activity towards its precursor and generated a faint GST-prodomain band of 30 kDa size,1600,incubation of CPP32 with the in vitro translated GST-Mch3α generated a GST-prodomain cleavage product of molecular mass 32 kDa,CPP32 was observed to efficiently cleave the GST-Mch3α precursor,No cleavage was observed when CPP32 was incubated with an in vitro translated GST control,> 500,67,–
"Mch3α, bacterially expressed recombinant active enzyme (protein) AKPDRSSFVPSLFSKKKKNVTMRSIKTTRDRVPTYQYNMNFEKLGKCIIINNKNFDKVTGMGVRNGTDKDAEALFKCFRSLGFDVIVYNDCSCAKMQDLLKKASEEDHTNAACFACILLSHGEENVIYGKDGVTPIKDLTAHFRGDRCKTLLEKPKLFFIQACRGTELDDGIQADSGPINDTDANPRYKIPVEADFLFAYSTVPGYYSWRSPGRGSWFVQALCSILEEHGKDLEIMQILTRVNDRVARHFESQSDDPHFHEKKQIPCVVSMLTKELYFSQ",No cleavage was observed in the buffer control or the Mch3α reaction,11,"Mch3α exhibited significantly less activity than CPP32 towards the in vitro translated GST-Mch3α, a similar cleavage product was observed",–,–,–,–,51
